Assay results reported in paper PMC7732827, “Autoregulation of yeast ribosomal proteins discovered by efficient search for feedback regulation”.

Biological target: Rpl1B-HIS (Saccharomyces cerevisiae, UniProt P0CX44 1-217)
Experiment: EMSA; 20 mM Mg2+; 400 nM RNA, 0.1-1 ug protein in 10 ul; 50 mM Tris-HCl pH 8.5, 350 mM KCl, 20 mM MgCl2, 0.1% NP-40, 10% glycerol, 30 min at 4 C; 7.5% Tris-glycine PAGE in the cold room
Conditions: protein: recombinant; tags: C-terminal His6 (HHHHHH); label: none (SYBR Green I stain); two hairpins (HP1, HP2), predicted

Rpl1B-HIS, sequence (P0CX44 whole entry): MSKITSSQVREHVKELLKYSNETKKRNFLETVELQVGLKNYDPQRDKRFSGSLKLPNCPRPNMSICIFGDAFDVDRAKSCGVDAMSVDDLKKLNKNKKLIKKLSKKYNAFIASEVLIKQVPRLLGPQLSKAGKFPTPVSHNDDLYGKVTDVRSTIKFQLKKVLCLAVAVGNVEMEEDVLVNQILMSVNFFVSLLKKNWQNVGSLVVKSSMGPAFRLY

B1: RPL1B-UTR RNA, synthetic (structured_RNA)
RNA: AUAGAACUAGUCGCAAGCCUCACGGACCACCAAAUACUUUGGAAGACUAAUUACAUAUCAUAAA
binding result: binds
